Experimental data: US12552837
*1 amine or outer side, *2 acyl side, *3 side chain or, on linkers, in order; H or OH if unused. Bridges are numbered along the chain shown (N, C = ends). [ ]: non-standard residue; d: D form. The star is where a group is joined. DOTA = O=C(O)CN1CCN(CC(=O)O)CCN(CC(=O)*)CCN(CC(=O)O)CC1; 1Nal = N[C@@H](Cc1cccc2ccccc12)C(=O)O; TBMB = c1c(C[*:1])cc(C[*:3])cc1C[*:2]; Tle = CC(C)(C)[C@H](N)C(=O)O

Molecular target: membrane type 1-matrix metalloproteinase (MT1-MMP), P50281
Assay: not stated at the place; fluorescence polarization with MT1-MMP hemopexin domain per Examples 7-8

B1: I-23 (peptide)
peptide: {DOTA}-AC[dA]NE[1Nal][dA]CEDFYD[Tle]C-NH2
modifications: linker 2-8-15 via TBMB
SMILES: C[C@H](NC(=O)CN1CCN(CC(=O)O)CCN(CC(=O)O)CCN(CC(=O)O)CC1)C(=O)N[C@H]1CSCc2cc3cc(c2)CSC[C@H](NC(=O)[C@@H](C)NC(=O)[C@H](Cc2cccc4ccccc24)NC(=O)[C@H](CCC(=O)O)NC(=O)[C@H](CC(N)=O)NC(=O)[C@@H](C)NC1=O)C(=O)N[C@@H](CCC(=O)O)C(=O)N[C@@H](CC(=O)O)C(=O)N[C@@H](Cc1ccccc1)C(=O)N[C@@H](Cc1ccc(O)cc1)C(=O)N[C@@H](CC(=O)O)C(=O)N[C@@H](C(C)(C)C)C(=O)N[C@H](C(N)=O)CSC3
With B1 the Kd was 0.52 nM.
